Data as given in patent US20100291078A1 (published 2010).

Key:
[1] = biological target: T1, human CD38 on cells (human, UniProt P28907 1-300); experiment: FACS titration on CD38 expressing RPMI8226 cells
T1 construct: whole, on cells; The species is stated for the CHO-K1 transfectants; also called CHO-K1 cells recombinantly expressing human CD38; CD38 expressing RPMI8226 cell

[2] = biological target: T2, human CD38-Fc (human, UniProt P28907 43-300, limits assumed); experiment: SPR (Biacore 3000), CD38-Fc immobilized, 1:1 fit, apparent
T2 construct: not shown: Fc part

EC50 [1]: 0.4 nM | Kd [2]: 3 nM
B1: MOR03080 IgG1 (antibody, V domains shown)
VH: QVQLVESGGGLVQPGGSLRLSCAASGFTFSSYGMHWVRQAPGKGLEWVSNIYSDGSNTFYADSVKGRFTISRDNSKNTLYLQMNSLRAEDTAVYYCARNMYRWPFHYFFDYWGQGTLVTVSS
VL: DIELTQPPSVSVAPGQTARISCSGDNIGNKYVSWYQQKPGQAPVVVIYGDNNRPSGIPERFSGSNSGNTATLTISGTQAEDEADYYCSSYDSSYFVFGGGTKLTVLG
